US20080242590A1, “New Method 706” (ASTRAZENECA AB, priority 2007, published 2008)

Experiments:
[1] = molecular target: amyloid β peptide 1-40 (human) (human); assay: cell-based or functional assay
[2] = molecular target: amyloid β peptide 1-42 (human) (human); assay: cell-based or functional assay
Chain of amyloid β peptide 1-42 (human) (human) (peptide, as listed by the source): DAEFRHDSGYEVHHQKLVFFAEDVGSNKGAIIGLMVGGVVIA

Chain of amyloid β peptide 1-40 (human) (human) (peptide, as listed by the source): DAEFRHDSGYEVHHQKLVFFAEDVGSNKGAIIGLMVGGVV

% degradation of amyloid β 1-40 in APPswe-tg mouse plasma at highest concentration (100 µg/ml), 1 h room temperature, ELISA [1]: 71%
% degradation of amyloid β 1-40 in human plasma at highest concentration (100 µg/ml), 1 h room temperature, ELISA [1]: 66%
Amyloid β 1-40 peptide degradation (remaining peptide by Gyrolab immunoassay), batch 1, 2.4 µg/ml, 300 nM peptide, 2.5 h at 37 °C in buffer [1]: 50%
Amyloid β 1-40 peptide degradation (remaining peptide by Gyrolab immunoassay), batch 2, 2.4 µg/ml, 300 nM peptide, 2.5 h at 37 °C in buffer [1]: 42%
EC50 of degradation of Aβ 1-40 in APPswe-tg mouse plasma [1]: 470 nM
EC50 of degradation of Aβ 1-40 in human plasma [1]: 580 nM
% degradation of Aβ 1-42 in APPswe-tg mouse plasma at highest concentration (100 µg/ml), 1 h room temperature, ELISA [2]: 34%
% degradation of Aβ 1-42 in human plasma at highest concentration (100 µg/ml), 1 h room temperature, ELISA [2]: 28%
EC50 of degradation of Aβ 1-42 in APPswe-tg mouse plasma [2]: 1300 nM
EC50 of degradation of Aβ 1-42 in human plasma [2]: 250 nM
B1: Fc-Neprilysin fusion protein (human IgG2 hinge and Fc domain fused N-terminally to the extracellular domain of human Neprilysin) (Fc fusion)
chain: ERKCCVECPPCPAPPVAGPSVFLFPPKPKDTLMISRTPEVTCVVVDVSHEDPEVQFNWYVDGVEVHNAKTKPREEQFNSTFRVVSVLTVVHQDWLNGKEYKCKVSNKGLPAPIEKTISKTKGQPREPQVYTLPPSREEMTKNQVSLTCLVKGFYPSDIAVEWESNGQPENNYKTTPPMLDSDGSFFLYSKLTVDKSRWQQGNVFSCSVMHEALHNHYTQKSLSLSPGKYDDGICKSSDCIKSAARLIQNMDATTEPCTDFFKYACGGWLKRNVIPETSSRYGNFDILRDELEVVLKDVLQEPKTEDIVAVQKAKALYRSCINESAIDSRGGEPLLKLLPDIYGWPVATENWEQKYGASWTAEKAIAQLNSKYGKKVLINLFVGTDDKNSVNHVIHIDQPRLGLPSRDYYECTGIYKEACTAYVDFMISVARLIRQEERLPIDENQLALEMNKVMELEKEIANATAKPEDRNDPMLLYNKMTLAQIQNNFSLEINGKPFSWLNFTNEIMSTVNISITNEEDVVVYAPEYLTKLKPILTKYSARDLQNLMSWRFIMDLVSSLSRTYKESRNAFRKALYGTTSETATWRRCANYVNGNMENAVGRLYVEAAFAGESKHVVEDLIAQIREVFIQTLDDLTWMDAETKKRAEEKALAIKERIGYPDDIVSNDNKLNNEYLELNYKEDEYFENIIQNLKFSQSKQLKKLREKVDKDEWISGAAVVNAFYSSGRNQIVFPAGILQPPFFSAQQSNSLNYGGIGMVIGHEITHGFDDNGRNFNKDGDLVDWWTQQSASNFKEQSQCMVYQYGNFSWDLAGGQHLNGINTLGENIADNGGLGQAYRAYQNYIKKNGEEKLLPGLDLNHKQLFFLNFAQVWCGTYRPEYAVNSIKTDVHSPGNFRIIGTLQNSAEFSEAFHCRKNSYMNPEKKCRVW
